In US20230212217A1:

Target: full domain protein A ligand (immobilised on resin) (UniProt P38507)
Experiment: protein A affinity chromatography, pH gradient elution, POROS MabCapture A Select (Example 5-4)

Peak 1 End pH (elution): 3.95 pH
Peak 1 start pH (elution): 4.17 pH
Substance: GLP-1-Fc (from UniProt P01275 98-128) (Fc fusion)
